{"source": "paper PMC2191977", "about": "(The Journal of Experimental Medicine, 1995)", "assay_in_all_cases": "flow cytometry on cells", "key": {"B7 L200A": {"target": "T1, B7 L200A (mouse, UniProt Q00609 38-306, L200A)", "T1 sequence (looked up)": "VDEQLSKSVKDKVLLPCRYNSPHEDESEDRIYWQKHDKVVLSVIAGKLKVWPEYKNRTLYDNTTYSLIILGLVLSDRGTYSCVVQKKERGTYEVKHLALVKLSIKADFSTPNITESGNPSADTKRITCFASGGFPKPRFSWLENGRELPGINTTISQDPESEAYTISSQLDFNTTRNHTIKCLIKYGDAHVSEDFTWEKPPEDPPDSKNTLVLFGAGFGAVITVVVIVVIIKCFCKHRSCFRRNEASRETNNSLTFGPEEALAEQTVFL"}, "B7 E199A": {"target": "T2, B7 E199A (mouse, UniProt Q00609 38-306, E199A)", "T2 sequence (looked up)": "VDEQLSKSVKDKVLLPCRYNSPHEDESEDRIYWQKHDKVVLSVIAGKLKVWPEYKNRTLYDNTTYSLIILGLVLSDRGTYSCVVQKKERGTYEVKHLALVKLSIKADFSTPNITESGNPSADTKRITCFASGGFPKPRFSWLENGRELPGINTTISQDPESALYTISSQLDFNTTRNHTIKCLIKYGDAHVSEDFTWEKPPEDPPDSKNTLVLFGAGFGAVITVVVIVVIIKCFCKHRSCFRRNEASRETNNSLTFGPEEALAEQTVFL"}, "[1]": {"target": "T3, B7 QDP/LEH (Q194L, D195E, P196H) (mouse, UniProt Q00609 38-306, Q194D195P196>LEH)", "T3 sequence (looked up)": "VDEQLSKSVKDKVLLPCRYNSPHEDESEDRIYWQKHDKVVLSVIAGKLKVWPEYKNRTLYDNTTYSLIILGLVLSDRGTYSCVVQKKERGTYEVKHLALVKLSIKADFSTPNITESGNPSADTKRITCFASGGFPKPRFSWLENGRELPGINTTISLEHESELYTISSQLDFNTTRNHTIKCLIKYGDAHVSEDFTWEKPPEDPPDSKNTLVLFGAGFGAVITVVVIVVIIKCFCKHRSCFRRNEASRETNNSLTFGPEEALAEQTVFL"}, "B7 L179V": {"target": "T4, B7 L179V (mouse, UniProt Q00609 38-306, L179V)", "T4 sequence (looked up)": "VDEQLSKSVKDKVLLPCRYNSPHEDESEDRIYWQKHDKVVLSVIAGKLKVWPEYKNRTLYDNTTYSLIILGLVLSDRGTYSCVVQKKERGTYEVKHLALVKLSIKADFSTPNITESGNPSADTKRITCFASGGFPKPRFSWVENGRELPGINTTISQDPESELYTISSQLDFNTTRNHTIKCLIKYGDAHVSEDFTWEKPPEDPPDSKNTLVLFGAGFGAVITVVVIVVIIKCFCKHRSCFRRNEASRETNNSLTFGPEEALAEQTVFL"}, "B7 S177A": {"target": "T5, B7 S177A (mouse, UniProt Q00609 38-306, S177A)", "T5 sequence (looked up)": "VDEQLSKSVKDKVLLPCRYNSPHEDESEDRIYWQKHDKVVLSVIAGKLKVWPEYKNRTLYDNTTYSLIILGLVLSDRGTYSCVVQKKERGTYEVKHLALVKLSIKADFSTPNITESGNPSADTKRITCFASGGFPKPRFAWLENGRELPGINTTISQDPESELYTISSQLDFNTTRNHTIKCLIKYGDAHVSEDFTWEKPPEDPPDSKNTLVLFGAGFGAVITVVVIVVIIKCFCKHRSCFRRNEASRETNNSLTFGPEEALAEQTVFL"}, "murine B7 (wild type)": {"target": "T6, murine B7 (wild type) (mouse, UniProt Q00609 38-306)", "T6 sequence (looked up)": "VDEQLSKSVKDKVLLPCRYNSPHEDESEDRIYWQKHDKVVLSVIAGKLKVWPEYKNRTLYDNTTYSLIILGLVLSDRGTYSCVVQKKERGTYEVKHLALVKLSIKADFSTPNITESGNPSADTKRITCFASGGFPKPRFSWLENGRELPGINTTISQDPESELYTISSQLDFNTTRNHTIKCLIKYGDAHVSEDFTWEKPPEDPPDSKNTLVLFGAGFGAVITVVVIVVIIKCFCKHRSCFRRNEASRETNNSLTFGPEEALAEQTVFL"}}, "data": [{"binder": "CD28Ig (Fc fusion, mouse, UniProt P31041 20-150, looked up) NKILVKQSPLLVVDSNEVSLSCRYSYNLLAKEFRASLYKGVNSDVEVCVGNGNFTYQPQFRSNAEFNCDGDFDNETVTFRLWNLHVNHTDIYFCKIEFMYPPPYLDNERSNGTIIHIKEKHLCHTQSSPKL", "values": [{"measurement": "% wild-type B7 binding (normalised to anti-B7 mAb 10.16A.1)", "setting": "B7 L200A", "value": 53, "unit": "%"}, {"measurement": "MF (mean fluorescence, control subtracted)", "setting": "B7 L200A", "value": 28, "unit": "MF"}, {"measurement": "% wild-type B7 binding (normalised to anti-B7 mAb 10.16A.1)", "setting": "B7 E199A", "value": 31, "unit": "%"}, {"measurement": "MF (mean fluorescence, control subtracted)", "setting": "B7 E199A", "value": 16, "unit": "MF"}, {"measurement": "% wild-type B7 binding (normalised to anti-B7 mAb 10.16A.1)", "setting": "[1]", "value": 3, "unit": "%"}, {"measurement": "MF (mean fluorescence, control subtracted)", "setting": "[1]", "value": 1, "unit": "MF"}, {"measurement": "% wild-type B7 binding (normalised to anti-B7 mAb 10.16A.1)", "setting": "B7 L179V", "value": 18, "unit": "%"}, {"measurement": "MF (mean fluorescence, control subtracted)", "setting": "B7 L179V", "value": 12, "unit": "MF"}, {"measurement": "% wild-type B7 binding (normalised to anti-B7 mAb 10.16A.1)", "setting": "B7 S177A", "value": 63, "unit": "%"}, {"measurement": "MF (mean fluorescence, control subtracted)", "setting": "B7 S177A", "value": 40, "unit": "MF"}, {"measurement": "% wild-type B7 binding (normalised to anti-B7 mAb 10.16A.1)", "setting": "murine B7 (wild type)", "value": 100, "unit": "%"}]}]}
